Reference: publication PMC4682845 (PLoS ONE, 2015)

Key:
AUC = target: the molecule itself; test: AUC
[1] = target: […]-para-nitroanilide (TQ6-pNA) peptide substrate; test: ITC + other: steady-state kinetics; settings: both partners purified

B1: SARS-CoV main protease (M^pro), wild type (enzyme)
chain: SGFRKMAFPSGKVEGCMVQVTCGTTTLNGLWLDDTVYCPRHVICTAEDMLNPNYEDLLIRKSNHSFLVQAGNVQLRVIGHSMQNCLLRLKVDTSNPKTPKYKFVRIQPGQTFSVLACYNGSPSGVYQCAMRPNHTIKGSFLNGSCGSVGFNIDYDCVSFCYMHHMELPTGVHAGTDLEGKFYGPFVDRQTAQAAGTDTTITLNVLAWLYAAVINGDRWFLNRFTTTLNDFNLVAMKYNYEPLTQDHVDILGPLSAQTGIAVLDMCAALKELLQNGMNGRTILGSTILEDEFTPFDVVRQCSGVTFQ
B1 showed a Kd (AUC) of 700 ± 20 nM, a koff [1] of 0.084 s⁻¹ and a kon [1] of 2460 M⁻¹ s⁻¹.
